Experimental data published in patent US20140087995A1 (published 2014).
Numbered stars: 1 amine (or outer) side, 2 acyl side, 3 side chain; on linkers, the order of the positions; unused ones are H or OH. Bridge positions count the residues as written; N and C are the ends. Side chains are listed from the residue outwards. Ends that are not written are not given here. * marks the point of attachment. C20 diacid = O=C(O)CCCCCCCCCCCCCCCCCCC(=O)*; γGlu = O=C(O)[C@H](CCC(=O)[*:2])N[*:1]

T1: human amylin receptor (human, UniProt P30988 25-474; O60896 24-148, limits assumed)
T1 construct: whole, on cells; Calcitonin receptor plus RAMP-3 gives the amylin 3(a) receptor; membranes of Amylin 3(a)/CRE-luc cells were used; also called hAmylin-R; hAmylinR
T1 sequence (looked up) 1: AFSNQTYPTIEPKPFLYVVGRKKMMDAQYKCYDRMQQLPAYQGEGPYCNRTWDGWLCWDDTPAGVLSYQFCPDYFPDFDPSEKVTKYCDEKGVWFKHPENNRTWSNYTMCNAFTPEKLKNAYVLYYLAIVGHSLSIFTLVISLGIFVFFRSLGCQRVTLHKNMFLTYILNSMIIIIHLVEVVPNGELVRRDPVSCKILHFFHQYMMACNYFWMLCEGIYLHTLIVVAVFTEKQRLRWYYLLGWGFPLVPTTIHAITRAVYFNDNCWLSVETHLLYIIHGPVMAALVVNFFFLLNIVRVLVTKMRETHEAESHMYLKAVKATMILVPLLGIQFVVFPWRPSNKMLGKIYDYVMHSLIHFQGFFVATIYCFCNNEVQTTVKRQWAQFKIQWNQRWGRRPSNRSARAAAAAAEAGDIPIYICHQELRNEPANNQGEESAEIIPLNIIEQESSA
T1 sequence (looked up) 2: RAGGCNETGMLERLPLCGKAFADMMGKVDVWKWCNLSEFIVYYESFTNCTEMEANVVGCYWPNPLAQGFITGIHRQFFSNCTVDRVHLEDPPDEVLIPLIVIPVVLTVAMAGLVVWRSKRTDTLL


Molecular target: T1, human amylin receptor
Assay: SPA competition binding, displacement of 125I-rat amylin from membranes with human amylin 3(a) receptor (Assay V)
In short: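 SPA beads + BHK amylin 3(a)/CRE-luc membranes, 35 ng/μL final; buffer 50 mM Hepes pH 7.4, 1 mM CaCl2, 5 mM MgCl₂, 0.1% OA, 0.02% Tween20. 120 min, 25° C, shaken; scintillation count. IC₅₀ by one-site binding competition fit, taken as receptor affinity.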

Binder	IC50 [nM]
K([γGlu-C20 diacid])CNTATCATQRLAEFLRHSSPNFGAIPSSTNVGSNTP-NH2 (disulfide 2-7; N-terminus assumed; SMILES CC[C@H](C)[C@H](NC(=O)[C@H](C)NC(=O)CNC(=O)[C@H](Cc1ccccc1)NC(=O)[C@H](CC(N)=O)NC(=O)[C@@H]1CCCN1C(=O)[C@H](CO)NC(=O)[C@H](CO)NC(=O)[C@H](Cc1c[nH]cn1)NC(=O)[C@H](CCCNC(=N)N)NC(=O)[C@H](CC(C)C)NC(=O)[C@H](Cc1ccccc1)NC(=O)[C@H](CCC(=O)O)NC(=O)[C@H](C)NC(=O)[C@H](CC(C)C)NC(=O)[C@H](CCCNC(=N)N)NC(=O)[C@H](CCC(N)=O)NC(=O)[C@@H](NC(=O)[C@H](C)NC(=O)[C@@H]1CSSC[C@H](NC(=O)[C@@H](N)CCCCNC(=O)CC[C@H](NC(=O)CCCCCCCCCCCCCCCCCCC(=O)O)C(=O)O)C(=O)N[C@@H](CC(N)=O)C(=O)N[C@@H]([C@@H](C)O)C(=O)N[C@@H](C)C(=O)N[C@@H]([C@@H](C)O)C(=O)N1)[C@@H](C)O)C(=O)N1CCC[C@H]1C(=O)N[C@@H](CO)C(=O)N[C@@H](CO)C(=O)N[C@H](C(=O)N[C@@H](CC(N)=O)C(=O)N[C@H](C(=O)NCC(=O)N[C@@H](CO)C(=O)N[C@@H](CC(N)=O)C(=O)N[C@H](C(=O)N1CCC[C@H]1C(N)=O)[C@@H](C)O)C(C)C)[C@@H](C)O, also called 14E, 17R, 21P, 27P, 37P)	0.142
K([γGlu-γGlu-C20 diacid])CNTATCATQRLAEFLRHSSPNFGAIPSSTNVGSNTP-NH2 (disulfide 2-7; N-terminus assumed; SMILES CC[C@H](C)[C@H](NC(=O)[C@H](C)NC(=O)CNC(=O)[C@H](Cc1ccccc1)NC(=O)[C@H](CC(N)=O)NC(=O)[C@@H]1CCCN1C(=O)[C@H](CO)NC(=O)[C@H](CO)NC(=O)[C@H](Cc1c[nH]cn1)NC(=O)[C@H](CCCNC(=N)N)NC(=O)[C@H](CC(C)C)NC(=O)[C@H](Cc1ccccc1)NC(=O)[C@H](CCC(=O)O)NC(=O)[C@H](C)NC(=O)[C@H](CC(C)C)NC(=O)[C@H](CCCNC(=N)N)NC(=O)[C@H](CCC(N)=O)NC(=O)[C@@H](NC(=O)[C@H](C)NC(=O)[C@@H]1CSSC[C@H](NC(=O)[C@@H](N)CCCCNC(=O)CC[C@H](NC(=O)CC[C@H](NC(=O)CCCCCCCCCCCCCCCCCCC(=O)O)C(=O)O)C(=O)O)C(=O)N[C@@H](CC(N)=O)C(=O)N[C@@H]([C@@H](C)O)C(=O)N[C@@H](C)C(=O)N[C@@H]([C@@H](C)O)C(=O)N1)[C@@H](C)O)C(=O)N1CCC[C@H]1C(=O)N[C@@H](CO)C(=O)N[C@@H](CO)C(=O)N[C@H](C(=O)N[C@@H](CC(N)=O)C(=O)N[C@H](C(=O)NCC(=O)N[C@@H](CO)C(=O)N[C@@H](CC(N)=O)C(=O)N[C@H](C(=O)N1CCC[C@H]1C(N)=O)[C@@H](C)O)C(C)C)[C@@H](C)O, also called 14E, 17R, 21P, 27P, 37P)	0.264
K([γGlu-γGlu-C20 diacid])CNTATCATQRLAHFLRHSSPNFGAIPSSTNVGSNTY-NH2 (disulfide 2-7; N-terminus assumed; SMILES CC[C@H](C)[C@H](NC(=O)[C@H](C)NC(=O)CNC(=O)[C@H](Cc1ccccc1)NC(=O)[C@H](CC(N)=O)NC(=O)[C@@H]1CCCN1C(=O)[C@H](CO)NC(=O)[C@H](CO)NC(=O)[C@H](Cc1c[nH]cn1)NC(=O)[C@H](CCCNC(=N)N)NC(=O)[C@H](CC(C)C)NC(=O)[C@H](Cc1ccccc1)NC(=O)[C@H](Cc1c[nH]cn1)NC(=O)[C@H](C)NC(=O)[C@H](CC(C)C)NC(=O)[C@H](CCCNC(=N)N)NC(=O)[C@H](CCC(N)=O)NC(=O)[C@@H](NC(=O)[C@H](C)NC(=O)[C@@H]1CSSC[C@H](NC(=O)[C@@H](N)CCCCNC(=O)CC[C@H](NC(=O)CC[C@H](NC(=O)CCCCCCCCCCCCCCCCCCC(=O)O)C(=O)O)C(=O)O)C(=O)N[C@@H](CC(N)=O)C(=O)N[C@@H]([C@@H](C)O)C(=O)N[C@@H](C)C(=O)N[C@@H]([C@@H](C)O)C(=O)N1)[C@@H](C)O)C(=O)N1CCC[C@H]1C(=O)N[C@@H](CO)C(=O)N[C@@H](CO)C(=O)N[C@H](C(=O)N[C@@H](CC(N)=O)C(=O)N[C@H](C(=O)NCC(=O)N[C@@H](CO)C(=O)N[C@@H](CC(N)=O)C(=O)N[C@H](C(=O)N[C@@H](Cc1ccc(O)cc1)C(N)=O)[C@@H](C)O)C(C)C)[C@@H](C)O, also called 14H, 17R, 21P, 27P)	0.179

The next binders have a lower IC50 than those just listed; values first:

IC50 [nM]	Binder
0.121	K([γGlu-γGlu-C20 diacid])CNTATCATQRLAEFLRHSSPNFGAIPSSTNVGPETY-NH2 (disulfide 2-7; N-terminus assumed; SMILES CC[C@H](C)[C@H](NC(=O)[C@H](C)NC(=O)CNC(=O)[C@H](Cc1ccccc1)NC(=O)[C@H](CC(N)=O)NC(=O)[C@@H]1CCCN1C(=O)[C@H](CO)NC(=O)[C@H](CO)NC(=O)[C@H](Cc1c[nH]cn1)NC(=O)[C@H](CCCNC(=N)N)NC(=O)[C@H](CC(C)C)NC(=O)[C@H](Cc1ccccc1)NC(=O)[C@H](CCC(=O)O)NC(=O)[C@H](C)NC(=O)[C@H](CC(C)C)NC(=O)[C@H](CCCNC(=N)N)NC(=O)[C@H](CCC(N)=O)NC(=O)[C@@H](NC(=O)[C@H](C)NC(=O)[C@@H]1CSSC[C@H](NC(=O)[C@@H](N)CCCCNC(=O)CC[C@H](NC(=O)CC[C@H](NC(=O)CCCCCCCCCCCCCCCCCCC(=O)O)C(=O)O)C(=O)O)C(=O)N[C@@H](CC(N)=O)C(=O)N[C@@H]([C@@H](C)O)C(=O)N[C@@H](C)C(=O)N[C@@H]([C@@H](C)O)C(=O)N1)[C@@H](C)O)C(=O)N1CCC[C@H]1C(=O)N[C@@H](CO)C(=O)N[C@@H](CO)C(=O)N[C@H](C(=O)N[C@@H](CC(N)=O)C(=O)N[C@H](C(=O)NCC(=O)N1CCC[C@H]1C(=O)N[C@@H](CCC(=O)O)C(=O)N[C@H](C(=O)N[C@@H](Cc1ccc(O)cc1)C(N)=O)[C@@H](C)O)C(C)C)[C@@H](C)O, also called 14E, 17R, 21P, 27P, 34P, 35E)
0.069	K([γGlu-γGlu-C20 diacid])CNTATCATQRLAEFLRHSSPNFGAILSSTPVGPETY-NH2 (disulfide 2-7 (inferred), also called 14E, 17R, 21P, 31P, 34P, 35E)
0.076	K([γGlu-γGlu-C20 diacid])CNTATCATQRLASFLRHSSPNFGAIPSSTNVGPETY-NH2 (disulfide 2-7; N-terminus assumed; SMILES CC[C@H](C)[C@H](NC(=O)[C@H](C)NC(=O)CNC(=O)[C@H](Cc1ccccc1)NC(=O)[C@H](CC(N)=O)NC(=O)[C@@H]1CCCN1C(=O)[C@H](CO)NC(=O)[C@H](CO)NC(=O)[C@H](Cc1c[nH]cn1)NC(=O)[C@H](CCCNC(=N)N)NC(=O)[C@H](CC(C)C)NC(=O)[C@H](Cc1ccccc1)NC(=O)[C@H](CO)NC(=O)[C@H](C)NC(=O)[C@H](CC(C)C)NC(=O)[C@H](CCCNC(=N)N)NC(=O)[C@H](CCC(N)=O)NC(=O)[C@@H](NC(=O)[C@H](C)NC(=O)[C@@H]1CSSC[C@H](NC(=O)[C@@H](N)CCCCNC(=O)CC[C@H](NC(=O)CC[C@H](NC(=O)CCCCCCCCCCCCCCCCCCC(=O)O)C(=O)O)C(=O)O)C(=O)N[C@@H](CC(N)=O)C(=O)N[C@@H]([C@@H](C)O)C(=O)N[C@@H](C)C(=O)N[C@@H]([C@@H](C)O)C(=O)N1)[C@@H](C)O)C(=O)N1CCC[C@H]1C(=O)N[C@@H](CO)C(=O)N[C@@H](CO)C(=O)N[C@H](C(=O)N[C@@H](CC(N)=O)C(=O)N[C@H](C(=O)NCC(=O)N1CCC[C@H]1C(=O)N[C@@H](CCC(=O)O)C(=O)N[C@H](C(=O)N[C@@H](Cc1ccc(O)cc1)C(N)=O)[C@@H](C)O)C(C)C)[C@@H](C)O, also called 14S, 17R, 21P, 27P, 34P, 35E)
